Test [1] has as its target T1, CD33M, full length human CD33 protein expressed on transfected cells (human, UniProt P20138 18-303).
T1 construct: also called full length CD33
Briefly: flow cytometry on MOLM-13 cells transfected with CD33 (CD33M per Table 3), anti-human IgG Alexa Fluor 647 secondary, median fluorescence. The method, then: (§1) Binding of sdAbs to human CD33 was assessed by flow cytometry. […] MOLM-13 cells were transiently transfected with a plasmid encoding a sequence comprising “CD33M” (SEQ ID NO: 112) or a plasmid encoding a sequence comprising a truncated version, “CD33m” (SEQ ID NO: 113). The sequence encoded by the CD33M plasmid includes the leader sequence, full extracellular domain, transmembrane domain, and cytoplasmic domain. The sequence encoded by the CD33m plasmid includes the leader sequence, the membrane proximal IgC2 domain, and the transmembrane domain. Untransfected HEK 293 cells were used as CD33-negative cells. Each cell type was plated at 30,000 cells/well in FACS buffer (PBS 1% BSA, 0.1% NaN₃ pH 7.4) on a 96-well round-bottom plate. The sdAbs were diluted in FACS buffer in a 3-fold, 11 point serial dilution. The sdAb dilutions were added to the plated cells, and assay plates were incubated for 30 minutes at 4° C. After washing twice in 150 μL of FACS buffer, cells in each well were resuspended in 100 μL of 1:2000 Alexa Fluor 647-conjugated Anti-Human IgG secondary diluted in FACS buffer and incubated at 4° C. for 30 minutes. The cells were washed twice more, then bound antibody was detected by flow cytometry.
(§2) Flow cytometric analysis was performed on an Intellicyte iQue Plus and fluorescence was plotted as median fluorescence intensity. The apparent affinity (Kd, nM) was determined using one site binding non-linear regression in PRISM graph software.
(In flow cytometry, cells or beads pass a laser one at a time.)

Test [2] addresses T1, CD33M, full length human CD33 protein …. Kind of test: flow cytometry on cells transfected with CD33M; apparent Kd, one-site fit. The method, then:
as §1, §2

Six molecules from patent US20200347133A1 (INHIBRX, published 2020) can be followed below.

T1 sequence (P20138 18-303): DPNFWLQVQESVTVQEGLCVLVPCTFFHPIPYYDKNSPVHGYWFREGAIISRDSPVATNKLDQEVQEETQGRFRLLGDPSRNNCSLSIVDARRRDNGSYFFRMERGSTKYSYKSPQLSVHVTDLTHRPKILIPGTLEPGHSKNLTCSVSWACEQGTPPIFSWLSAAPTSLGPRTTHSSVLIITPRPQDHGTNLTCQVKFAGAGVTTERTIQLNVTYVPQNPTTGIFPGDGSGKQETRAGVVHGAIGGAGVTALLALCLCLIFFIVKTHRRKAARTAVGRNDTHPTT

B1: 1E4 sdAb (1E4 VHH domain fused to human IgG1 xELL Fc region) (Fc fusion)
chain: QVQLQQSGGGSVQAGGSLRLSCVASGSGFSASLMSWHRQAPGSQRDLVASITRDGRANYVDSVKDRFTISRDNAKNTAYLQMDSLKPEDTAAYYCHAYSFDYPIRSYWGQGTQVTVDKTHTCPPCPAPGGPSVFLFPPKPKDTLMISRTPEVTCVVVDVSHEDPEVKFNWYVDGVEVHNAKTKPREEQYNSTYRVVSVLTVLHQDWLNGKEYKCKVSNKALPAPIEKTISKAKGQPREPQVYTLPPSRDELTKNQVSLTCLVKGFYPSDIAVEWESNGQPENNYKTTPPVLDSDGSFFLYSKLTVDKSRWQQGNVFSCSVMHEALHNHYTQKSLSLSPGK
notes: VHH-Fc; no linker between VHH and Fc is stated; also called 1E4-IgG1
What is called EC50 (read off the curve) is the concentration giving half of the maximal effect. Read a high EC50 (read off the curve) as a need for much substance. Take B1: the “EC50 (read off the curve)” value in test [1] was around 0.07 nM. Moreover, the Kd in test [2] worked out at 0.05 nM.

B2: G11 sdAb (G11 VHH domain fused to human IgG1 xELL Fc region) (Fc fusion)
chain: EVQLVQSGGGSVQVGGSLRLSCAASGSTLNIDHIGWYRQAPGKERELVGVISSGAGPNYADSVKGRFTISRDNAKNTVYLQMNSLKPEDTAVYNCNAWIDYGSGLPQNYWGQGTQVTVDKTHTCPPCPAPGGPSVFLFPPKPKDTLMISRTPEVTCVVVDVSHEDPEVKFNWYVDGVEVHNAKTKPREEQYNSTYRVVSVLTVLHQDWLNGKEYKCKVSNKALPAPIEKTISKAKGQPREPQVYTLPPSRDELTKNQVSLTCLVKGFYPSDIAVEWESNGQPENNYKTTPPVLDSDGSFFLYSKLTVDKSRWQQGNVFSCSVMHEALHNHYTQKSLSLSPGK
notes: VHH-Fc; no linker stated
B2: the Kd in test [2] stood at 1.1 nM.

B3: hz1E4v2 sdAb (hz1E4v2 VHH domain fused to human IgG1 xELL Fc region) (Fc fusion)
chain: EVQLVESGGGEVQPGGSLRLSCAASGSGFSASLMSWHRQAPGKQRDLVASITRDGRANYVESVKGRFTISRDNAKNTLYLQMSSLRAEDTAVYYCHAYSFDYPIRSYWGQGTLVTVDKTHTCPPCPAPGGPSVFLFPPKPKDTLMISRTPEVTCVVVDVSHEDPEVKFNWYVDGVEVHNAKTKPREEQYNSTYRVVSVLTVLHQDWLNGKEYKCKVSNKALPAPIEKTISKAKGQPREPQVYTLPPSRDELTKNQVSLTCLVKGFYPSDIAVEWESNGQPENNYKTTPPVLDSDGSFFLYSKLTVDKSRWQQGNVFSCSVMHEALHNHYTQKSLSLSPGK
notes: VHH-Fc; no linker stated; also called hz1E4v2-IgG1
Regarding B3, the “EC50 (read off the curve)” value in test [1] is around 0.3 nM. Further, the Kd in test [2] stood at 0.32 nM.

B4: 1G3 sdAb (1G3 VHH domain fused to human IgG1 xELL Fc region) (Fc fusion)
chain: EVQLQQSGGGEVQPGGSLRLSCEASGFTFSSYAMGWFRQAPGKGREWVAAITTSGDTTYYAESVKGRFTISRDNAKNTVYLQMSSLRAEDTAVYYCAAHRGGGVIDYWGQGTQVTVDKTHTCPPCPAPGGPSVFLFPPKPKDTLMISRTPEVTCVVVDVSHEDPEVKFNWYVDGVEVHNAKTKPREEQYNSTYRVVSVLTVLHQDWLNGKEYKCKVSNKALPAPIEKTISKAKGQPREPQVYTLPPSRDELTKNQVSLTCLVKGFYPSDIAVEWESNGQPENNYKTTPPVLDSDGSFFLYSKLTVDKSRWQQGNVFSCSVMHEALHNHYTQKSLSLSPGK
notes: VHH-Fc; no linker stated
Take B4: the Kd in test [2] stood at 0.49 nM.

B5: hz1G3v3 sdAb (hz1G3v3 VHH domain fused to human IgG1 xELL Fc region) (Fc fusion)
chain: EVQLVESGGGEVQPGGSLRLSCAASGFTFSSYAMGWFRQAPGKGREWVAAITTSGDTTYYAESVKGRFTISRDNAKNTVYLQMSSLRAEDTAVYYCAAHRGGGVIDYWGQGTLVTVDKTHTCPPCPAPGGPSVFLFPPKPKDTLMISRTPEVTCVVVDVSHEDPEVKFNWYVDGVEVHNAKTKPREEQYNSTYRVVSVLTVLHQDWLNGKEYKCKVSNKALPAPIEKTISKAKGQPREPQVYTLPPSRDELTKNQVSLTCLVKGFYPSDIAVEWESNGQPENNYKTTPPVLDSDGSFFLYSKLTVDKSRWQQGNVFSCSVMHEALHNHYTQKSLSLSPGK
notes: VHH-Fc; no linker stated; also called hz1G3v3-IgG1
For the molecule B5, the “EC50 (read off the curve)” value in test [1] was around 2 nM. Besides, in test [2], the Kd came out at 1.6 nM.

B6: 1C7 sdAb (1C7 VHH domain fused to human IgG1 xELL Fc region) (Fc fusion)
chain: QVQLQQSGGGLVQAGGSLRLSCAASGRTFSGYIMGWFRQVPGKERELVARISGNNLSTEYGGSVKGRFTISRDSAKETMYLQMNSLKPEDTAIYYCAAEYDYSSGDFVYWGQGTQVTVDKTHTCPPCPAPGGPSVFLFPPKPKDTLMISRTPEVTCVVVDVSHEDPEVKFNWYVDGVEVHNAKTKPREEQYNSTYRVVSVLTVLHQDWLNGKEYKCKVSNKALPAPIEKTISKAKGQPREPQVYTLPPSRDELTKNQVSLTCLVKGFYPSDIAVEWESNGQPENNYKTTPPVLDSDGSFFLYSKLTVDKSRWQQGNVFSCSVMHEALHNHYTQKSLSLSPGK
notes: VHH-Fc; no linker stated; also called 1C7-IgG1
For B6, the Kd in test [2] worked out at 6.64 nM.
